The numbers were not newly measured in paper PMC9836287, which cites them from elsewhere.

For this series, the target named is CEP250 (Homo sapiens) (UniProt Q9BV73).
Sequence of UniProt Q9BV73 (Q9BV73 whole entry): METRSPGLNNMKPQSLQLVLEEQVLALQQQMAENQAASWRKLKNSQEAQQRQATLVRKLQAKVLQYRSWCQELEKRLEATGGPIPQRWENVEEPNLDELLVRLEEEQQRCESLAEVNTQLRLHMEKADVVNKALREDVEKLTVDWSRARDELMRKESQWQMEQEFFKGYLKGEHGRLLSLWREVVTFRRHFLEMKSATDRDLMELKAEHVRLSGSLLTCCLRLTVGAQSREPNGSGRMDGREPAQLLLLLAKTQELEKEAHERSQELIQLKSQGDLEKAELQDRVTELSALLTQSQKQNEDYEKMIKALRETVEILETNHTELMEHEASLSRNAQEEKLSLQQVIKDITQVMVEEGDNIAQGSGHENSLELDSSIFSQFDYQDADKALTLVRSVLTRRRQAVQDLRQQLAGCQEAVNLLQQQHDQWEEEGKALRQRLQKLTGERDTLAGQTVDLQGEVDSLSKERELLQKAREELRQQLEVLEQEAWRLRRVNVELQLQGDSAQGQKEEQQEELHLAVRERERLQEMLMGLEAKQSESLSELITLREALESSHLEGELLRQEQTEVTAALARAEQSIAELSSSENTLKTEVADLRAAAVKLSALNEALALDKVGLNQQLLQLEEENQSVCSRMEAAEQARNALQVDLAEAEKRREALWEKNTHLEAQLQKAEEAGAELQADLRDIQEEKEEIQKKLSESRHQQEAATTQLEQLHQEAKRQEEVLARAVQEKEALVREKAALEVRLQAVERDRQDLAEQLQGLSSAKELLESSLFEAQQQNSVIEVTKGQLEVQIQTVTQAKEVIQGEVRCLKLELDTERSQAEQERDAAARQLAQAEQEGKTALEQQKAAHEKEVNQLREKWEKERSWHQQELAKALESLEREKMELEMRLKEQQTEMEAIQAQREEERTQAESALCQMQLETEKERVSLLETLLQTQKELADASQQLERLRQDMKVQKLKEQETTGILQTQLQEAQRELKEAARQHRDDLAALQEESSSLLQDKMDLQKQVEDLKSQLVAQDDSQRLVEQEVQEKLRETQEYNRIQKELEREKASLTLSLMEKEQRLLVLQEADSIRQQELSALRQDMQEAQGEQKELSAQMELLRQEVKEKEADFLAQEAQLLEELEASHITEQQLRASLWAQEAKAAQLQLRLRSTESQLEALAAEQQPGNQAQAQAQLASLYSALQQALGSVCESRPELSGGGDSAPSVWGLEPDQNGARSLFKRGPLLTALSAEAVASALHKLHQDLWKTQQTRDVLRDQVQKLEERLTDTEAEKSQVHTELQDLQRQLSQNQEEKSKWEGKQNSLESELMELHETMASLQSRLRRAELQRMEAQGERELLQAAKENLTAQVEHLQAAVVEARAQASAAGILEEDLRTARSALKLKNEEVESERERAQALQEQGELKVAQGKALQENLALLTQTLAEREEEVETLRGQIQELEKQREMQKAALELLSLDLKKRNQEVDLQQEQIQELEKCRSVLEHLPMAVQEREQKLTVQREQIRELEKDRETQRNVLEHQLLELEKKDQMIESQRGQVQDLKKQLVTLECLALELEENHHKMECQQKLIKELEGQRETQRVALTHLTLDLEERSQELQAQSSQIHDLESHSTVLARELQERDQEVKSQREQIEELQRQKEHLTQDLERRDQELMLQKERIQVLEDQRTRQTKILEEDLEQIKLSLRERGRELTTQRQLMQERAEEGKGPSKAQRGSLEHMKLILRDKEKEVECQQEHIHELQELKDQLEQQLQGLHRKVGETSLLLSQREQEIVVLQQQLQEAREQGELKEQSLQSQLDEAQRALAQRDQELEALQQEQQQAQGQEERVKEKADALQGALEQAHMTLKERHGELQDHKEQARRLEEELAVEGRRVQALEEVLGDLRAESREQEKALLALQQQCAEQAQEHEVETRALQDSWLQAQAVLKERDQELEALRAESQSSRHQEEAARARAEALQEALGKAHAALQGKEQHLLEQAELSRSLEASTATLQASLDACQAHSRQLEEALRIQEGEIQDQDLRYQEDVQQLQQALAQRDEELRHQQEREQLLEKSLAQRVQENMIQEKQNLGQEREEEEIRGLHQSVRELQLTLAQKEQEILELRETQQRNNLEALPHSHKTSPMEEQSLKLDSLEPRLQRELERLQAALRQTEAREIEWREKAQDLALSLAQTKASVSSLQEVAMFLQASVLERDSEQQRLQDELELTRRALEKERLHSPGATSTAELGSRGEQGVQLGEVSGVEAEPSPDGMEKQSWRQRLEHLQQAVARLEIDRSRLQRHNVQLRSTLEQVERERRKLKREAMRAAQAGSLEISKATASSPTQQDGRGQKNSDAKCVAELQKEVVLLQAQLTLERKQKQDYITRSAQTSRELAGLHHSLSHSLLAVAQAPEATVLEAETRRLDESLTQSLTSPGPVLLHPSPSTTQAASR

Broadly, the Kd is a measure of binding affinity in units of concentration. For FKBP12 (from UniProt P62942), the Kd was 40 nM.
